Assay [1] addresses T1, p110β (Mus musculus, UniProt Q8BTI9).
T1 construct: Mouse His6-p110β(1-1064)/p85β-icSH2(423-722) complex; made in house; host or cells: Sf9 insect cells (baculovirus co-infection)
Nature of the assay: Transcreener ADP formation (fluorescence polarization), diC8-PIP2/POPS liposomes, mouse p110β complexes. The class given is biochemical. The conditions noted are these: Figure 5B. As for the experimental part:
(§1) Figure 1 Inhibition of p110β by p85-Type Regulatory Subunits and Activation of the Complexes by RTK Phosphopeptide (A) Domain organization of p110β and the regulatory subunits p85α, p85β, and p55γ. The color scheme for the domains is used for all figures, unless otherwise stated. […] The inhibition is released upon addition of the 10 μM PDGFR pY2. […] The y axis is expressed as a change in fluorescence polarization (ΔmP), which is obtained by subtracting the observed polarization for the construct at a given enzyme concentration from the maximum fluorescence polarization for that construct. The plateau in these assays arises due to the competitive nature of the ADP detection system, based on displacement of ADP-Alexa 633 tracer from the ADP^2-antibody by ADP generated during the PI3K assay (see Supplemental Experimental Procedures). All measurements were done in triplicates, and the error bars indicate the standard error of the mean (SEM). (C) Kinase activity of p110β/p85β complexes with monomeric substrate (75 μM diC8-PIP2) in the presence and absence of pY2; y axis as in (B). (D) Basal- and pY2-stimulated activities of 35 nM PI3K complexes in the absence of lipids (ATP hydrolysis). Activities are given as percent of ATP converted to ADP using the Transcreener assay. Bars indicate SEM. TEXT PRINTED IN THE PICTURE: (B) p110β/nic: EC50 (nM): 15 | (B) p110β/nic+pY2: EC50 (nM): 0.14 | (B) p110β/ic: EC50 (nM): 1 | (B) p110β/ic+pY2: EC50 (nM): 0.21 | (B) p110β/ni: EC50 (nM): 0.84 | (B) p110β/ni+pY2: EC50 (nM): 0.24 | (B) p110β/i: EC50 (nM): 0.12 | (B) p110β/i+pY2: EC50 (nM): 0.14 | (B) ΔABD-p110β: EC50 (nM): 0.06 | (B) ΔABD-p110β+pY2: EC50 (nM): 0.05 | (C) p110β/nic: EC50 (nM): 24 | (C) p110β/nic+pY2: EC50 (nM): 3 | (C) p110β/ic: EC50 (nM): 5 | (C) p110β/ic+pY2: EC50 (nM): 2 | (C) p110β/ni: EC50 (nM): 4 | (C) p110β/ni+pY2: EC50 (nM): 2 […]
(§2) Figure 3 Mutation Y677A in p85β-cSH2 Releases Inhibitory Effect on p110β (A) Kinase activity (ADP formation) of p110β in a complex with p85β-icSH2-Y677A (Y677A-ic) compared to the wild-type complex (ic) in the absence and presence of 10 μM PDGFR pY2 (ADP formation on the y axis expressed as in Figure 1B). (B) Comparison of p110β activities of 1 nM complexes with wild-type or Y677 mutant nicSH2 or icSH2 (activity shown as in Figure 1D). TEXT PRINTED IN THE PICTURE: (A) p110β/ic: EC50 (nM): 1 | (A) p110β/ic+pY2: EC50 (nM): 0.15 | (A) p110β/ic-Y677A: EC50 (nM): 0.11 | (A) p110β/ic-Y677A+pY2: EC50 (nM): 0.08 […]
(§3) The lipid kinase activity was determined using the Transcreener ADP2 FP Assay (BellBrook Labs, Madison, WI) according to manufacturer‟s specifications. This non-radioactive assay measures activity by quantitating the amount of ADP formed. The ADP formed by PI3K competes with fluorescent ADP tracer for binding to an anti-ADP antibody, thereby decreasing fluorescence polarization. Because of the competitive nature of this assay, the change in fluorescence polarization signal is not a linear function of enzyme activity, and a convenient measure of enzyme activity is the EC50, or the concentration of enzyme necessary to give half-maximal inhibition of labeled ADP binding to the antibody, for a given concentration of substrate and a fixed time of reaction at initial rate. While activity of two different enzyme constructs can be compared at a fixed concentration of protein and a fixed concentration of substrate, the assay is most reliable when about 2%-10% of the ATP is […]
(§4) Consequently, the EC50 provides a convenient way to compare the activities of various constructs. Briefly, reactions were performed in 10 μl volume in 384-well black plates (Corning 3676) and they contained final 100 μM ATP, 75 μM lipids and a series of protein concentration varying from 0.001 nM to 2.5 μM. Serial dilutions of protein heterodimers were prepared in buffer F (50 mM Hepes pH 7.5, 100 mM NaCl, 0.03% CHAPS, 4 mM DTT) in 5 μl […]
volume. […]
(Polarisation of emitted light reports the rotation of a fluorescent probe.)

For assay [2], the system named is p110β. The description is as above. In kind it is biochemical. To be noted: Figure 5B, C-terminal truncation vs wild-type, diC8-PIP2/POPS, 100 μM ATP, 1 h, room temperature. The procedure:
as §1, §2, §3, §4
volume. […]

Read-outs that look alike come from different tables or passages of the source.

T1 sequence (Q8BTI9 1-1047): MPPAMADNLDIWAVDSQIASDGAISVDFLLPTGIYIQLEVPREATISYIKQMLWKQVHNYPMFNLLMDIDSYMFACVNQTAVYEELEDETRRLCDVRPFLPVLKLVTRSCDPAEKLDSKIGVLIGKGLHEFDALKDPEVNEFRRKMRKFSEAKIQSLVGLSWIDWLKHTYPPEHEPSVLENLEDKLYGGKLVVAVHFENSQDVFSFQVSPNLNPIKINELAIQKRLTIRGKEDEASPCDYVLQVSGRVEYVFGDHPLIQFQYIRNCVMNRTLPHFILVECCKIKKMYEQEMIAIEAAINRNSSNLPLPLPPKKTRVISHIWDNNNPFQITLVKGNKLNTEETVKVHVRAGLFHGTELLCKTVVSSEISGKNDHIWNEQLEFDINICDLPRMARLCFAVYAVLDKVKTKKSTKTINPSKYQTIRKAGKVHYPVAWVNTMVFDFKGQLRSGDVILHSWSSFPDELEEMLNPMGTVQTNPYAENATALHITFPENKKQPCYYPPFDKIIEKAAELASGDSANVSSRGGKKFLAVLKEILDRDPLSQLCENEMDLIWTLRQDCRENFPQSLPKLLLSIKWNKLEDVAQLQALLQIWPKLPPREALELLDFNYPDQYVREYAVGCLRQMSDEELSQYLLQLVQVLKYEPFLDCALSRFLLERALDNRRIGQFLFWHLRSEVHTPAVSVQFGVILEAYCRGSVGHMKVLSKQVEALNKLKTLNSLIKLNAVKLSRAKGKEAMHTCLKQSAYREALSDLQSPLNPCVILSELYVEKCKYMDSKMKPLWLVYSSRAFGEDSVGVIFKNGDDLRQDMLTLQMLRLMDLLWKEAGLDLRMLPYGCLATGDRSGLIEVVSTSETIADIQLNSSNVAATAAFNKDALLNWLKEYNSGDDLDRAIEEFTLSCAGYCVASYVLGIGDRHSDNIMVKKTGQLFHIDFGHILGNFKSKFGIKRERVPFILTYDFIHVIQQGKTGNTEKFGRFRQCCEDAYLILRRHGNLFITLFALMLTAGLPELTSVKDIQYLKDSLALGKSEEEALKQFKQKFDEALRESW
T1 sequence (O08908 318-722 partner): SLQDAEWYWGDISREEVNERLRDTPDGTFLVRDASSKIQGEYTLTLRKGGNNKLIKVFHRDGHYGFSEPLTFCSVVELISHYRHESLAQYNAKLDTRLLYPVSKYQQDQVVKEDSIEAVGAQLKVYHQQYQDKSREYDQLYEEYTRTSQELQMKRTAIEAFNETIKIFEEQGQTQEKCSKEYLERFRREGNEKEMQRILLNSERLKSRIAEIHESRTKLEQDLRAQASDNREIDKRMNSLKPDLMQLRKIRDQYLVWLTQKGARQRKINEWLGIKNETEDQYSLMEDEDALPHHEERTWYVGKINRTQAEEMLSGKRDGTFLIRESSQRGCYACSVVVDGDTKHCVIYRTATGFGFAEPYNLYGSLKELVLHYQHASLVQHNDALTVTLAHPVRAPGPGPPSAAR

B1: p110β-ΔCter/nic: truncation mutant lacking 17 residues from the p110β C terminus; human ΔCter (1-1053) used in cells (protein, UniProt P42338 1-1053, looked up, fragment)
chain: MCFSFIMPPAMADILDIWAVDSQIASDGSIPVDFLLPTGIYIQLEVPREATISYIKQMLWKQVHNYPMFNLLMDIDSYMFACVNQTAVYEELEDETRRLCDVRPFLPVLKLVTRSCDPGEKLDSKIGVLIGKGLHEFDSLKDPEVNEFRRKMRKFSEEKILSLVGLSWMDWLKQTYPPEHEPSIPENLEDKLYGGKLIVAVHFENCQDVFSFQVSPNMNPIKVNELAIQKRLTIHGKEDEVSPYDYVLQVSGRVEYVFGDHPLIQFQYIRNCVMNRALPHFILVECCKIKKMYEQEMIAIEAAINRNSSNLPLPLPPKKTRIISHVWENNNPFQIVLVKGNKLNTEETVKVHVRAGLFHGTELLCKTIVSSEVSGKNDHIWNEPLEFDINICDLPRMARLCFAVYAVLDKVKTKKSTKTINPSKYQTIRKAGKVHYPVAWVNTMVFDFKGQLRTGDIILHSWSSFPDELEEMLNPMGTVQTNPYTENATALHVKFPENKKQPYYYPPFDKIIEKAAEIASSDSANVSSRGGKKFLPVLKEILDRDPLSQLCENEMDLIWTLRQDCREIFPQSLPKLLLSIKWNKLEDVAQLQALLQIWPKLPPREALELLDFNYPDQYVREYAVGCLRQMSDEELSQYLLQLVQVLKYEPFLDCALSRFLLERALGNRRIGQFLFWHLRSEVHIPAVSVQFGVILEAYCRGSVGHMKVLSKQVEALNKLKTLNSLIKLNAVKLNRAKGKEAMHTCLKQSAYREALSDLQSPLNPCVILSELYVEKCKYMDSKMKPLWLVYNNKVFGEDSVGVIFKNGDDLRQDMLTLQMLRLMDLLWKEAGLDLRMLPYGCLATGDRSGLIEVVSTSETIADIQLNSSNVAAAAAFNKDALLNWLKEYNSGDDLDRAIEEFTLSCAGYCVASYVLGIGDRHSDNIMVKKTGQLFHIDFGHILGNFKSKFGIKRERVPFILTYDFIHVIQQGKTGNTEKFGRFRQCCEDAYLILRRHGNLFITLFALMLTAGLPELTSVKDIQYLKDSLALGKSEEEALKQFKQKFDEALRESW
Consider B1, for which the “basal activity with diC8-PIP2/POPS” value with p110β [1] is reported as “very low basal activity”. The EC50 in the assay with p110β [2] (absence of pY2, read-out: EC50 (enzyme concentration), lipid kinase activity, basal) was determined as 38 nM; with p110β [2] (with 10 μM PDGFR pY2, read-out: EC50 (enzyme concentration), lipid kinase activity, + pY2) it was 57 nM.

The values are drawn from publication PMC3670040, “Structure of Lipid Kinase p110β/p85β Elucidates an Unusual SH2-Domain-Mediated Inhibitory Mechanism” (Molecular Cell, 2011).
